Here are results for one molecule from patent US20210332120A1 (JOINT STOCK COMPANY BIOCAD, published 2021).

The target of one assay is T1, human IL-17F (human, UniProt Q96PD4 31-163).
T1 construct: also called IL-17F human
T1 sequence (looked up): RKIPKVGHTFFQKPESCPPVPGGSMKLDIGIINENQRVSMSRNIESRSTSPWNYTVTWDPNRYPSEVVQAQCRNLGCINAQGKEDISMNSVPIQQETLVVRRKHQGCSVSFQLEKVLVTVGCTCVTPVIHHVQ
Kind of assay: BLI OctetRED96.

For assay [1], the target named is T2, human IL-17A (human, UniProt Q16552 20-155, limits assumed). Kind of assay: cell-based or functional assay.
T2 sequence (Q16552 20-155 limits assumed): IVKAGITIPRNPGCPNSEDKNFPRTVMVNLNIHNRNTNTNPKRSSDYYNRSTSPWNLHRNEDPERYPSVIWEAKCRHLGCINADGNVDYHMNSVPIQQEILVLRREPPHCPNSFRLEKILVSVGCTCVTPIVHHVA
For another assay, the target named is T3, mouse TNFα (mouse, UniProt P06804 80-235).
T3 sequence (looked up): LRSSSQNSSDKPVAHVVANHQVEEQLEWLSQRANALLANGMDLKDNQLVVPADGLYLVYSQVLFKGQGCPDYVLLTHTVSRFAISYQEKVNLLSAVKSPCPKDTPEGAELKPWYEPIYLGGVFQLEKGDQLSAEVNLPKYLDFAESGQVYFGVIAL
The assay is described as follows: ELISA, plate coated with mouse TNFα, anti-Fab HRP detection.

The next assay deals with T4, rabbit TNFα (rabbit, UniProt P04924 80-235, limits assumed).
T4 sequence (looked up): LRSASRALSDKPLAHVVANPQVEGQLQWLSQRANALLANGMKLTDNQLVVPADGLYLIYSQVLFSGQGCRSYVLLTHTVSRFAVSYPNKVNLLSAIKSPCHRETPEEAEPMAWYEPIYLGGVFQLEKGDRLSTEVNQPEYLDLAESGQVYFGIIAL
The assay is described as follows: ELISA, plate coated with rabbit TNFα, anti-Fab HRP detection.

A further assay has as its target T5, human IL-17B (human, UniProt Q9UHF5 21-180).
T5 sequence (looked up): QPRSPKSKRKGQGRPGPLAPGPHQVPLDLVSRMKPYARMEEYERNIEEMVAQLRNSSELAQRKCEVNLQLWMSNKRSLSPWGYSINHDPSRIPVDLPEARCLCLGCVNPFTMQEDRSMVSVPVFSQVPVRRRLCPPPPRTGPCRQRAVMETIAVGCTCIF
Kind of assay: ELISA, plate coated with human IL-17B, anti-Fab HRP detection.

The target in another assay is T6, human IL-17C (human, UniProt Q9P0M4 19-197).
T6 sequence (looked up): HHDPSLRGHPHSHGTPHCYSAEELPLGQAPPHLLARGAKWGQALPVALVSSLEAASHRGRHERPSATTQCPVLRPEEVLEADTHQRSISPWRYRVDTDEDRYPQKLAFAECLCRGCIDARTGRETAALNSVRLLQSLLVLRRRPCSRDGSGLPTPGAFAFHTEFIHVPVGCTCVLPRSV
The assay is described as follows: ELISA, plate coated with human IL-17C, anti-Fab HRP detection.

For another assay, the target named is T7, human IL-17D (human, UniProt Q8TAD2 18-202, limits assumed).
T7 sequence (looked up): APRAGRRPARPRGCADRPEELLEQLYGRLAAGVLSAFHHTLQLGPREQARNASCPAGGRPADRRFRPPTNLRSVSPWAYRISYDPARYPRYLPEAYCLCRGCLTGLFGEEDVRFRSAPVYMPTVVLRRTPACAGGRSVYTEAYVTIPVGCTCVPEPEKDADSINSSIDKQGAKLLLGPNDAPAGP
Kind of assay: ELISA, plate coated with human IL-17D, anti-Fab HRP detection.

Another assay concerns the target T8, human IL-17E (human, UniProt Q9H293 33-177).
T8 sequence (looked up): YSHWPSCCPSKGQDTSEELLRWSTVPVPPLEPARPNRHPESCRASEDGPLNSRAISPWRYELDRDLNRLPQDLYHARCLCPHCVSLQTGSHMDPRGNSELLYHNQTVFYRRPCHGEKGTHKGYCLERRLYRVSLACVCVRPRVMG
Kind of assay: ELISA, plate coated with human IL-17E, anti-Fab HRP detection.

The next assay has as its target T9, guinea pig TNFα (guinea pig, UniProt P51435 80-234, limits assumed).
T9 sequence (looked up): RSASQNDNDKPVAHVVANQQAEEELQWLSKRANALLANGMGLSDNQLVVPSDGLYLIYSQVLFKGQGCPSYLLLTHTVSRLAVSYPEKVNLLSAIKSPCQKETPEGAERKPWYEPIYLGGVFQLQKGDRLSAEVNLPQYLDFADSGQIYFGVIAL
The assay is described as follows: ELISA, plate coated with guinea pig TNFα, anti-Fab HRP detection.

Another assay addresses T10, TNFα multta (multta (so in the source); primate), UniProt P48094 77-233).
T10 construct: The species is printed only as 'multta'; read as Macaca mulatta
The assay is described as follows: SPR Biacore T200; ligand amine-coupled, antibody 1 to 25 µg/ml, Heterogeneous Ligand model.

For a further assay, the target named is T11, cynomolgus IL-17A (cyno, UniProt A0A2K5TTB0 24-155).
T11 construct: also called IL-17A cyno
T11 sequence (A0A2K5TTB0 entry or part of it): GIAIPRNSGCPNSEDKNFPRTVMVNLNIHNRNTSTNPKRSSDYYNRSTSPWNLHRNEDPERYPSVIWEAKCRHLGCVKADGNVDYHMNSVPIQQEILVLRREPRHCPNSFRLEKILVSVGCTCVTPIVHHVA
Described as above.

For assay [2], the target named is T2, human IL-17A. The assay is described as follows: SPR Biacore T200; ligand amine-coupled, antibody 1 to 25 µg/ml, Heterogeneous Ligand model; * below the threshold sensitivity of the device.
Method: (§1) The analysis was conducted using the Sandwich approach using IL-17A and TNFα preparations produced by Sino Biologics. After activation of the chips, individual ligand was nonspecifically (by NH2 groups) immobilized on the biosensor surface at a concentration of 20 μg/ml. Loading of the antibody was then performed at a concentration from 1 to 25 μg/ml. Thereafter, the sensors were immersed in the running buffer for the complex dissociation step. The flow rate was 10 μl/min.
(§2) Analysis of the obtained data was performed using BIA Evolution 3.1 software and the Heterogeneous Ligand model.

T10 sequence (P48094 77-233 limits assumed): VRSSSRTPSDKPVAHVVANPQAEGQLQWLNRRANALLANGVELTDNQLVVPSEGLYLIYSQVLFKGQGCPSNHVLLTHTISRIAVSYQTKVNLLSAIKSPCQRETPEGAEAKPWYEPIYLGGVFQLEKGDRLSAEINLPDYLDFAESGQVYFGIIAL
Method for TNFα multta: as §1, §2
Method for cynomolgus IL-17A: as §1, §2
Method for human IL-17B: (§3) For the binding analysis, the wells of ELISA plates (medium binding from Greiner bio one) were individually coated with 50 μl of human IL-17A, IL-17B, IL-17C, IL-17D, IL-17E, IL-17F, or IL-17A/F (R&D Systems) at a concentration of 1 μg/ml (in 1× coating carbonate buffer), hermetically sealed, and incubated overnight at 4 C. All subsequent steps were performed by standard EIA protocol. To block non-specific binding blocking, buffer BB was added (200 μl of 0.5% skim milk in PBS). Plates were incubated on a shaker for one hour at room temperature. After washes with PBS-Tween, 50 μl of the test antibodies were added to each well at a concentration of 5 μg/ml in PBS-Tween. Plates were again incubated with shaking for one hour at room temperature, then each well of the plates was washed three times with PBS-Tween buffer. After washing, human anti-Fab HRP-conjugated secondary antibody (from Pierce-ThermoScientific) was added (50 μl/well) at a ratio of 1:5000 in PBS-Tween. Plates were shaken on a rotary shaker (50 min, room temperature) and washed three times with PBS-Tween buffer, as described above. […] The color signal was measured at 450 nm using a suitable plate-reader (Tecan-Sunrise; Tecan).
Method for human IL-17C: as §3
Method for human IL-17D: as §3
Method for human IL-17E: as §3

B1: BCD-121 tri-specific anti-IL-17A/anti-IL-17F/anti-TNFα antibody (bispecific antibody, human IgG1, kappa, L234A L235A)
heavy: not shown
light: EVQLVQSGGGLVQAGGSLRLSCAASGGTFATSPMGWLRQAPGKGTEFVAAISPSGGDRIYADSVKGRFTISRDNAGNFIYLQMNSLKPEDTAVYYCAVRRRFDGTSYYTGDYDSWGQGTLVTVSSGGGSGGGSEGAGSDIQMTQSPSSLSASVGDRVTITCKASQNVGTNVAWYQQKPGKAPKALIYSASFLYSGVPYRFSGSGSGTDFTLTISSLQPEDFATYYCQQYNIFPLTFGQGTKVEIKRTVAAPSVFIFPPSDEQLKSGTASVVCLLNNFYPREAKVQWKVDNALQSGNSQESVTEQDSKDSTYSLSSTLTLSKADYEKHKVYACEVTHQGLSSPVTKSFNRGEC
notes: also called Mab12; VHH-IgG1 (LALA)
Turning to B1, the dissociation constant Kd was around 4000 pM with human IL-17F, around 1 pM with TNFα multta, around 1 pM with cynomolgus IL-17A and below 1 pM in the assay with human IL-17A [2]. In addition, the “IC50, IL-17A and TNFα induced IL-6 production, HT1080 cells” value with human IL-17A [1] worked out at 0.02 µg/mL. The “IC50, IL-17A-dependent IL-6 production, HT1080 cells” value in the assay with human IL-17A [1] came out at 0.0035 µg/mL. Besides, the binding result is “no binding (tested: 2 ng/ml)” with mouse TNFα; “no binding (tested: 2 ng/ml)” with rabbit TNFα; “no binding (tested: 0,5 ng/ml)” with human IL-17B; “no binding (tested: 0,5 ng/ml)” with human IL-17C; “no binding (tested: 0,5 ng/ml)” with human IL-17D; “no binding (tested: 0,5 ng/ml)” with human IL-17E. The binding result with guinea pig TNFα was “no binding (tested: 2 ng/ml)”.
